Results: US20040002450A1, “Y17 - isolated molecules comprising epitopes containing sulfated moieties, antibodies to such epitopes, and uses thereof” (priority 2000, published 2004)

Legend:
platelet GPIbα [1] = target: T1, platelet GPIbα (Homo sapiens, UniProt P07359); experiment: Western blot/FACS of endoprotease-cleaved platelet GPIbα and glycocalicin; format: binding
T1 construct: endogenous in cells; host or cells: washed human platelets (blood-bank platelet concentrate)
Description: (§1) Immunoblotting and endoprotease cleavage techniques were used to identify the epitope for Y1 on the surface membrane of platelets.
(§2) The enzyme O-Sialoglycoprotein endoprotease from Pasteurella haemolytica (Cedarlan CLE 100) selectively cleaves human platelet GPIb and specifically cleaves only proteins containing sialylated, O-linked glycans. […] This enzyme has been reported to cleave GPIb, which is heavily O-glycosylated, but not GPIIb-IIIa or other receptors on platelets. GPIbα was digested with O-Sialoglycoprotein endoprotease in order to further establish the binding of Y1 to the molecule.
(§3) Mocarhagin [Sigma L4515a] is a cobra venom metalloproteinase that cleaves platelet GPIbα specifically at a single site between residues glu-282 and asp-283, thereby generating two stable products: a ˜45-kDa N-terminal fragment (His1-Glu282), which is released into the supernatant, and a membrane-bound ˜95 kDa C-terminal fragment.
(§4) Cathepsin G (Sigma C4428), a neutrophil serine protease, cleaves glycocalicin at a first cleavage site between residues Leu-275 and Tyr-276 and at a second cleavage site between residues Val-296 and Lys-297. Cathepsin G treatment of glycocalicin generates two N-terminal fragments: a small N-terminal 42 kDa fragment (His1-Leu275), a large N-terminal 45 kDa N-terminal fragment (His1-Val-296), and corresponding ˜95 kDa C-terminal fragments. (FIG. 1).
(§5) For mocarhagin digestion, 10^8 washed platelets in TS buffer (0.01 M Tris, 0.15 M sodium chloride, pH 7.4) containing 1 mM calcium chloride were treated with 12 μg/ml mocarhagin (final concentration) for 1 hour at 22° C. and digestion was stopped by adding EDTA to 0.01 M.
(§6) 10^6 platelets in 0.1 M Tris buffer pH 7.4 containing 0.2% albumin and protease inhibitors (10 μM leupeptin, 0.24 mM PMSF) was incubated with 0.14 mg/ml O-Sialoglycoprotein endoprotease (final concentration) for 45 min at 37° C. and digestion was stopped by adding sample buffer and boiling. The sample buffer used contained 3% SDS, 12% glycerol, 50 mM Tris HCl, 2% β-mercaptoethanol, and 0.03% bromphenol blue.
(§7) For mocarhagin digestion, glycocalicin in TS buffer containing 1 mM calcium chloride was incubated with 10 μg/ml mocarhagin (final concentration) for 1 hour at 22° C. and digestion was stopped by adding EDTA to 0.01 M.
(§8) For cathepsin G digestion, glycocalicin in TS buffer containing 1 mM calcium chloride was incubated with 3.4 μg/ml cathepsin G (final concentration) for 4 hour at 22° C. and digestion was stopped by adding PMSF to 1 mM.

platelet GPIbα [2] = experiment: as above; format: binding, human; conditions: immunoblots and FACS
Description: as §1, §2, §3, §4, §5, §6, §7, §8

KG-1 cells = experiment: FACS and binding competition on KG-1 cells (Y1 forms and multimers); parameters: species or system human; conditions: 5 μg and 10 μg
Description: To compare the binding of the scFv monomer (also referred to as CONY1) with the Y1 dimer, binding competition experiments were done in vitro on KG-1 cells. In addition, these experiments also compared the binding of the full Y1 IgG to the scFv Y1 monomers. To perform this study, a Y1 IgG was labeled with biotin.
In a preferred method, tetramers are formed via a biotin/streptavidin association. A novel fermentation construct that is capable of being enzymatically labeled with biotin (referred to herein as Y1-biotag or Y1-B) was created. A sequence that is a substrate for the BirA enzyme was added at the Y1C-terminus. The BirA enzyme adds a biotin to the lysine residue within the sequence. Y1-biotag was expressed in E. coli. The inclusion body material was isolated and refolded. The purity of the folded protein was >95%, and >100 mg were obtained from a 1-L culture (small-scale, non-optimized conditions). […] Nevertheless, this construct offered the advantage of specific biotinylation in which the binding site of the molecule remains intact. Further, each molecule is labeled by only one biotin—each molecule receives one biotin on the carboxyl end.
Limiting labeling to one biotin/molecule in a desired location enabled production of tetramers with streptavidin. The tetramers were formed by incubating Y1-B with steptavidin-PE. […]

primary leukemia cells = experiment: FACS analysis of binding to primary leukemia cells of patients; parameters: species or system human
Experimental: Analysis of binding of scFv Y1 antibodies and anti-CD162 antibodies to diseased cells also illustrates that scFv Y1 has binding characteristics different from those of anti-CD-162 antibodies. […] Table F). Y1 binds to the leukemic cells in 10 of 12 samples. In contrast, anti-CD162 bound only 5 out of 12 samples. […] Thus, it may be concluded that, in leukemic cells, scFv Y1 binds to a ligand other than that recognized by anti-CD162.
Samples provided from hospitals. Patients sample 30 μl/tube. Add 5 μl/tube of CD33-APC (for AML) or CD19-APC (for B-CLL) or CD38-APC (for Multiple Myeloma). Add 5 μl/tube of CD45-PerCp and 5 μl of scFv-Y1 or control scFv-N31 or CD162-PE (KPL1). Incubate tubes 30 minutes at 4° C. with low shaking. Wash by adding 2 ml PBS and spin 5 minutes at 1200 rpm. Discard supernatant.
For a one step assay continue with the lysis step:
Add 500 μl BD Lysine solution diluted 1:10 with ddH2O (300 μl to patient sample). Vortex at high speed and incubate 12 minutes at 4° C. Wash as above. Discard supernatant. And add 500 μl PBS. The samples are read in the FACS using blood sample acquisition setup according to international standards.
For two or more assays: working buffer is PBS+1% BSA+0.05% sodium azide. Incubations and wash as above.
Lysis of the red blood cells is the final step in the assay, followed by resuspension with 500 μl PBS.

B1: Y1 scFv: fully human scFv clone binding platelets and myelogenous leukemia cells; SEQ ID NO: 25, heavy chain CDR3 SEQ ID NO: 8 (protein, listed as Homo sapiens)
scFv: MKYLLPTAAAGLLLLAAQPAMAEVQLVESGGGVVRPGGSLRLSCAASGFTFDDYGMSWVRQAPGKGLEWVSGINWNGGSTGYADSVKGRFTISRDNAKNSLYLQMNSLRAEDTAVYYCARMRAPVIWGQGTLVTVSRGGGGSGGGGSGGGGSSELTQDPAVSVALGQTVRITCQGDSLRSYYASWYQQKPGQAPVLVIYGKNNRPSGIPDRFSGSSSGNTASLTITGAQAEDEADYYCNSRDSSGNHVVFGGGTKLTVLGAAAEQKLISEEDLNGAA
Q: With B1 as the molecule, how does the “binding to cathepsin G fragments of glycocalicin” value (platelet GPIbα [1]; Western blot) read?
A: bound to the larger N-terminal fragment (His 1-Val-296), but not to the smaller N-terminal fragment (His1-Leu275)

Q: And the “binding after mocarhagin treatment of washed platelets” value (platelet GPIbα [1]; Western blot of platelet lysates)?
A: binding of Y1 to the N-terminal ˜45 kDa tryptic fragment

Q: What about the “binding to washed platelets after O-Sialoglycoprotein endoprotease” value (platelet GPIbα [2]) of the same molecule?
A: abolishes binding

Q: What about the “competition with Y1 IgG-Biotin (50 ng)” value (KG-1 cells) of the same molecule?
A: partially competed

Q: And the “leukemia patient samples whose leukemic cells are bound” value (primary leukemia cells; 12 patient samples, FACS)?
A: 10 of 12

Q: And the “% Positive” value (primary leukemia cells; AML patients)?
A: 80%

Q: And the “Number Positive” value (primary leukemia cells; AML patients)?
A: 60/75

Q: What about the “% Negative” value (primary leukemia cells; B-ALL, Bone Marrow) of the same molecule?
A: 67%

Q: And the “% Positive” value (primary leukemia cells; B-ALL, Bone Marrow)?
A: 33%

Q: And the “Number Positive” value (primary leukemia cells; B-ALL, Bone Marrow)?
A: 3/9

Q: And the “% Negative” value (primary leukemia cells; B-CLL, Peripheral Blood)?
A: 26%

Q: And the “% Positive” value (primary leukemia cells; B-CLL, Peripheral Blood)?
A: 74%

Q: What about the “Number Positive” value (primary leukemia cells; B-CLL, Peripheral Blood) of the same molecule?
A: 17/23

Q: And the “% Positive” value (primary leukemia cells; B-Leukemia patients)?
A: 67%

Q: What about the “Number Positive” value (primary leukemia cells; B-Leukemia patients) of the same molecule?
A: 29/43

Q: What about the “% Negative” value (primary leukemia cells; B-Lymphoma, Peripheral Blood) of the same molecule?
A: 38%

Q: What about the “% Positive” value (primary leukemia cells; B-Lymphoma, Peripheral Blood) of the same molecule?
A: 62%

Q: What about the “Number Positive” value (primary leukemia cells; B-Lymphoma, Peripheral Blood) of the same molecule?
A: 5/8

Q: What about the “% Positive” value (primary leukemia cells; Multiple Myeloma patients) of the same molecule?
A: 100%

Q: And the “Number Positive” value (primary leukemia cells; Multiple Myeloma patients)?
A: 16/16

Q: And the “% Negative” value (primary leukemia cells; Pre-B-ALL, Bone Marrow)?
A: 0%

Q: What about the “% Positive” value (primary leukemia cells; Pre-B-ALL, Bone Marrow) of the same molecule?
A: 100%

Q: And the “Number Positive” value (primary leukemia cells; Pre-B-ALL, Bone Marrow)?
A: 3/3
